Data on four molecules can be found in patent US7049395 (YALE UNIVERSITY, dated 2006).

First the molecules themselves.
B3: NEMO-(197-419) (other, human, UniProt Q9Y6K9 197-419, looked up)
chain: VQVDQLRMQGQSVEAALRMERQAASEEKRKLAQLQVAYHQLFQEYDNHIKSSVVGSERKRGMQLEDLKQQLQQAEEALVAKQEVIDKLKEEAEQHKIVMETVPVLKAQADIYKADFQAERQAREKLAEKKELLQEQLEQLQREYSKLKASCQESARIEDMRKRHVEVSQAPLPPAPAYLSSPLALPSQRRSPPEEPPDFCCPKCQYQAPDMDTLQIHVMECIE
notes: range 197-419; [35S]-labelled in vitro translated; also transfected in COS or HEK293 cells

Test [1] has as its target T1, GST alone (UniProt P08515 1-218 = GST).
T1 construct: control bait in the GST pull-downs
Description: GST pull-down of in vitro translated protein.

The next test deals with T2, NEMO-(86-419) (human, UniProt Q9Y6K9 86-419).
T2 construct: range 86-419; [35S]-labelled in vitro translated; also transfected in COS or HEK293 cells
The test can be described thus: GST pull-down with GST-IKKβ-(644-756). The source says: (§1) Equal amounts of each protein were used for subsequent GST pull-down analyses.

The test “NEMO-(197-419)” deals with B3. Description: GST pull-down with GST-IKKβ-(644-756).
Excerpt: as §1

In another test the target is T3, FLAG-tagged IKKβ (human, UniProt O14920 1-756).
T3 construct: expressed in transfected COS, HEK293 or HeLa cells; also called IKKβ-FLAG; FLAG-IKKβ
T3 sequence (looked up): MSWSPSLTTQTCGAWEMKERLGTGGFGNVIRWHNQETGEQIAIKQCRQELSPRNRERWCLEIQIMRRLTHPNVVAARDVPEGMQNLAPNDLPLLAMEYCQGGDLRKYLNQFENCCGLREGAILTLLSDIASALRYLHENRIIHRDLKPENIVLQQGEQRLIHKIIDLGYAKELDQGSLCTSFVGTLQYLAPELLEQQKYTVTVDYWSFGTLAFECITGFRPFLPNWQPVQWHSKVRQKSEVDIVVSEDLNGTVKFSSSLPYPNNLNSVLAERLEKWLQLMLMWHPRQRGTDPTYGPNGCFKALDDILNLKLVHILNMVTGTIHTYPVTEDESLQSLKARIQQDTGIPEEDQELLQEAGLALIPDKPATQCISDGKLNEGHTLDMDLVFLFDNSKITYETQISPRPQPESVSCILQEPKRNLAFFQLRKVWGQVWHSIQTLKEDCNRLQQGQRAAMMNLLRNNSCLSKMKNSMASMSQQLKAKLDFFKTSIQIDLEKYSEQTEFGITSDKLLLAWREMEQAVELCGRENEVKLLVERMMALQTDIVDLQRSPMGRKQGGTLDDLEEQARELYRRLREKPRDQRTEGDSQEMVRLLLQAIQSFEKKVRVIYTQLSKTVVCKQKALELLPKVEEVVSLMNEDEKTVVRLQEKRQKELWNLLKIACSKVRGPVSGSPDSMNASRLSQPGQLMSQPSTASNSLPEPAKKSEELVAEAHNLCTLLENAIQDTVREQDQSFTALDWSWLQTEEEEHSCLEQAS
The test can be described thus: co-immunoprecipitation from transfected COS or HEK293 cells. As for the experimental part: For all immunoprecipitations HeLa or COS cells grown in six well trays were lysed in 500 µl TNT. FLAG-tagged proteins were precipitated from lysate of transfected cells for two hours at 4° C. using 20 µl of anti-FLAG (M2)-conjugated agarose beads (Sigma). […] For immunoblotting, precipitates were washed three times with TNT, twice with PBS then suspended in SDS-sample buffer. Proteins were separated by SDS-PAGE (10%), transferred to PVDF membranes and visualized by enhanced chemiluminesence (Amersham-Pharmacia).

Test [2] addresses T1, GST alone. Description: GST pull-down of [35S]-labelled NEMO truncations.
Excerpt: as §1

T1 sequence (P08515 whole entry): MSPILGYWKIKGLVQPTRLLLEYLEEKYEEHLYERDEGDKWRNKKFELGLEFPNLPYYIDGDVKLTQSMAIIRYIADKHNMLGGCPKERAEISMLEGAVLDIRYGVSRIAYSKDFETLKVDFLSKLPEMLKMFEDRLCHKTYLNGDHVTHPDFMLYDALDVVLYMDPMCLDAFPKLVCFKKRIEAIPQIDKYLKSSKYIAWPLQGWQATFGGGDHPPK

B1: IKKβ-(644-756) (enzyme, human, UniProt O14920 644-756, looked up)
chain: VRLQEKRQKELWNLLKIACSKVRGPVSGSPDSMNASRLSQPGQLMSQPSTASNSLPEPAKKSEELVAEAHNLCTLLENAIQDTVREQDQSFTALDWSWLQTEEEEHSCLEQAS
Take B1: the binding result with GST alone [1] was “no binding”.

B2: GST-IKKβ-(644-756) (other, human, UniProt O14920 644-756, looked up)
chain: VRLQEKRQKELWNLLKIACSKVRGPVSGSPDSMNASRLSQPGQLMSQPSTASNSLPEPAKKSEELVAEAHNLCTLLENAIQDTVREQDQSFTALDWSWLQTEEEEHSCLEQAS
notes: bacterially expressed; not shown: glutathione S-transferase (GST) as encoded by vector pGEX-4T1 (Pharmacia)
With B2, the binding result with NEMO-(86-419) and with NEMO-(197-419) was “no binding” each time.
Turning to B3, the binding result with FLAG-tagged IKKβ is given as “no binding”.

B4: NEMO-(1-196) (other, human, UniProt Q9Y6K9 1-196, looked up)
chain: MNRHLWKSQLCEMVQPSGGPAADQDVLGEESPLGKPAMLHLPSEQGAPETLQRCLEENQELRDAIRQSNQILRERCEELLHFQASQREEKEFLMCKFQEARKLVERLGLEKLDLKRQKEQALREVEHLKRCQQQMAEDKASVKAQVTSLLGELQESQSRLEAATKECQALEGRARAASEQARQLESEREALQQQHS
notes: [35S]-labelled in vitro translated; also transfected in COS or HEK293 cells
Take B4: in the test with GST alone [2], the binding result is recorded as “no binding”.
